Square brackets hold non-standard residues; d marks the D form. Peptide text beside a SMILES is read from it. * marks the point of attachment. Dolaproine = CO[C@@H]([C@@H]1CCCN1)[C@@H](C)C(=O)O; Dil = CC[C@H](C)[C@H](NC)[C@@H](CC(=O)O)OC; X1 = C[C@@H](N*)[C@@H](O)c1ccccc1; NMeV = CN[C@H](C(=O)O)C(C)C
What was measured:
[1] = Int J Mol Sci. 21 (9): 3286 (2020); cited from earlier work
hTERT HPNE = experiment: Growth inhibitory response to serially diluted MMAE, normal pancreatic cell line; type: cell-based; details: serially diluted MMAE (FIG. 10)
Panc-1 [2] = experiment: Transwell migration assay, Panc-1; type: cell-based, human; details: Panc-1, transwell migration assay (FIG. 5B)
Method: (§1) PAAD cells were seeded at 5×10^4 cells/well in a 24-well Transwell cell migration plate (Corning) and incubated with scFv for 2 days. In the assay, recombinant ephrin-A1 (Sino Biological) was added as a positive control. After scFv treatment, the cells were fixed with frozen 100% methanol for 10 min and stained with 0.01% crystal violet for 1 h at room temperature. After the pate was washed with ddH2O, the upper-layer cells were removed using cotton swabs. Cell staining was imaged using a microscope and analyzed using ImageJ. For the scratch wound healing assay, PAAD cells were seeded in a 6-well culture plate. The seeded cells in the well were scratched with a pipette tip to simulate a wound. After treatment with scFv and incubation for 36 or 72 h, the cells were imaged using a microscope. The wound areas were analyzed using ImageJ.

AsPc-1 = experiment: MTS cell proliferation assay, AsPc-1; type: cell-based, human; parameters: dose or concentration left out as unconfirmed; details: AsPc-1, MTS, Day 5, scFv
Method: (§2) PAAD cell proliferation was measured using a 3-(4,5-dimethylthiazol-2-yl)-5-(3-carboxymethoxyphenyl)-2-(4-sulfophenyl)-2H-tetrazolium (MTS) Cell Proliferation Assay Kit (Promega). The cells were seeded in a 96-well culture plate at a density of 5000 cells/well for attachment. Then, scFv at various concentrations was added to the cell culture and incubated for 5 days. Finally, MTS and phenazine methosulfate solutions were added and incubated for 90 min for development. After the SDS reagent was added to stop the reaction, the absorbance of each well was measured by determining the OD at 490 nm.

Panc-1 [3] = experiment: MTS cell proliferation assay, Panc-1; type: cell-based, human; parameters: dose or concentration left out as unconfirmed; details: Panc-1, MTS, Day 5, scFv
Method: as §2

BxPc-3 [4] = experiment: Scratch wound healing assay, BxPc-3; type: cell-based, human; details: BxPc-3, wound healing assay (FIG. 5D)
Method: as §1
(§3) For the scratch wound healing assay, PAAD cells were seeded in a 6-well culture plate. The seeded cells in the well were scratched with a pipette tip to simulate a wound. After treatment with scFv and incubation for 36 or 72 h, the cells were imaged using a microscope. The wound areas were analyzed using ImageJ.

Mia PaCa-2 [5] = experiment: MTS cell proliferation assay, Mia PaCa-2; type: cell-based, human; parameters: dose or concentration left out as unconfirmed; details: Mia PaCa-2, MTS, Day 5, scFv
Method: as §2

BxPc-3 [6] = experiment: MTS cell proliferation assay, BxPc-3; type: cell-based, human; parameters: dose or concentration left out as unconfirmed; details: BxPc-3, MTS, Day 5, scFv
Method: as §2

BxPc-3 [7] = experiment: Transwell migration assay, BxPc-3; type: cell-based, human; details: BxPc-3, transwell migration assay (FIG. 5B)
Method: as §1

Mia PaCa-2 [8] = experiment: Scratch wound healing assay, Mia PaCa-2; type: cell-based, human; details: Mia PaCa-2, wound healing assay (FIG. 5D)
Method: as §1, §3

BxPc-3 and Mia PaCa-2 [9] = experiment: Scratch wound healing assay (FIG. 5C); type: cell-based, human; details: after 36 and 72 h of treatment with scFv
Method: as §1, §3

EphA2 [10] = target: T1, EphA2 (Homo sapiens, UniProt P29317); experiment: Western blotting under reducing (SDS-PAGE) and non-reducing (Native-PAGE) conditions; type: binding; details: Native-PAGE vs SDS-PAGE (FIG. 3D)
Method: The recombinant EphA2 protein was transferred onto nitrocellulose membranes (GE Healthcare Life Sciences) after electrophoresis using sodium dodecyl sulfate-polyacrylamide gel (SDS-PAGE) or nativepolyacrylamide gel (Native-PAGE), and the membranes were incubated with using purified scFv antibodies to determine binding reactivity. The membranes were blocked with 5% skim milk and then incubated with scFv at room temperature for 1 h. After washing with PBST, the membranes were detected and developed using HRP-conjugated goat anti-chicken light chain antibodies. Finally, the 3,3′-diaminobenzidine substrate was added for color development until the desired color intensity was reached.

[11] = target: T2, natural EphA2 molecule in the lysate of 4 pancreatic cancer cell lines (Homo sapiens, UniProt P29317); experiment: Immunoprecipitation (pull down) from PAAD cell lysates; type: binding; details: lysates of four PAAD cell lines (FIG. 3F)
T2 construct: with endogenous EphA2 molecule expression; endogenous in cells; host or cells: AsPc-1, BxPc-3, Panc-1, Mia PaCa-2
Method: For the immunoprecipitation assay, 300 μg of each PAAD cell lysate was incubated with 50 μg of antiEphA2 scFv (scFv was fused with a His tag) at 4° C. overnight. On the next day, 30 μL of Ni^2+-charged sepharose was added to the mixture and incubated for 1 h at 4° C. After three rounds of washing with NiNTA wash buffer (50 mM NaH2PO4, 300 mM NaCl, and 10 mM imidazole, pH 8.0), the scFv-bound sepharose beads were resuspended in 50 μL of PBS buffer. Subsequently, the sepharose solution was denatured at 95° C. for 10 min and analyzed using SDS-PAGE. After the proteins were transferred to a polyvinylidene fluoride membrane, the membrane was detected using the anti-EphA2 antibody (R&D Systems) and anti-His (Proteintech Group) antibody at 4° C. overnight. On the next day, after washing with PBST, the membrane was incubated with HRP-conjugated secondary antibody (Jackson ImmunoResearch Laboratories). Finally, the chemiluminescence substrate was added for luminal signal detection.

BxPc-3 and Mia PaCa-2 [12] = experiment: Transwell migration assay (FIG. 5A); type: cell-based, human; parameters: dose or concentration left out as unconfirmed; details: scFv for 2 days
Method: as §1

[13] = target: T3, endogenous EphA2 molecules on 4 pancreatic cancer cell lines (AsPc-1, BxPc-3, Panc-1, Mia PaCa-2) (Homo sapiens, UniProt P29317); experiment: Flow cytometry binding on pancreatic cancer cells; details: 4 PAAD cell lines (FIG. 3E)
T3 construct: with endogenous EphA2 molecule expression; endogenous in cells; host or cells: AsPc-1, BxPc-3, Panc-1, Mia PaCa-2
Method: Four PAAD cells AsPc-1, BxPc-3, Panc-1, and Mia PaCa-2 with endogenous EphA2 molecule expression, were analyzed through flow cytometry to determine the binding reactivity of indicated scFvs. Freshly prepared cancer cells were harvested and washed twice with PBS. Then, individual scFv was added and incubated at room temperature for 1 h. Bound scFv was visualized using goat anti-chicken light chain antibodies and donkey anti-goat antibodies conjugated with fluorescein isothiocyanate (FITC; Jackson ImmunoResearch Laboratories). An irrelevant scFv was used as the negative control, and commercially available goat anti-EphA2 antibodies were used as the positive control (R&D Systems) in the assay. The results were analyzed using a FACS can flow cytometer (BD Biosciences, Systems and Reagents).

EphA2 [14] = target: T1, EphA2; experiment: Flow cytometry binding specificity on 293T cells overexpressing EphA molecules: EphA2; parameters: expressed in transfected cells; host or cells: 293T; details: flow cytometry (FIG. 6A)
Method: (§4) To detect the binding specificity of scFv, 293T cells were transformed with EphA1-A8 plasmids individually for overexpression of different EphA molecules. The cell line was freshly prepared and washed with FACS buffer (2% FBS in PBS). The cells were seeded at 1×10^5 cells/well into a 96-well Ubottom plate and incubated with scFv for 1 h at 4° C. After the plate was washed with FACS buffer, the anti-hemagglutinin (HA) antibody was added for scFv binding detection (scFv was fused with a HA tag) and subsequently developed using an FITC-conjugated secondary antibody. Finally, the cell binding signal was analyzed using a FACS can flow cytometer.

[15] = tested on: BxPc-3 and Mia PaCa-2 cells; experiment: Molecule signaling by Western blotting; type: cell-based, human
Method: […] The cells were collected and lysed using lysis buffer [50 mM Tris-HCl (pH 7.5), 50 mM NaCl, 5 mM ethylenediaminetetraacetic acid, and 1% Triton X-100], and a mixture of proteinase inhibitors (Roche Applied Science) was added. The protein concentration of the cell lysate was measured through the Coomassie Plus (Bradford) Protein Assay (Thermo Fisher Scientific). Samples were run on reducing SDS-PAGE for Western blotting analysis and were detected using antibodies against p-EphA2, EphA2, p-AKT, AKT, p-ERK, ERK, p-FAK, FAK, pSTAT3, STAT3 (Cell Signaling Technology), and β-actin (GeneTex).

[16] = tested on: other Eph family proteins (EphA1-A8); experiment: Flow cytometry binding specificity on 293T cells overexpressing EphA molecules: other family proteins; details: cells overexpressing EphA1-A8 (FIG. 6A)
Method: as §4

HuCCT1, ssp-25, RBE, TFK = experiment: MTS growth inhibition, cholagiocarcinoma cells; type: cell-based; parameters: dose or concentration left out as unconfirmed; details: four cell lines HuCCT1, ssp-25, RBE, Day 5
Method: The growth inhibitory effect of hSD5 scFv on the four strains of cholagiocarcinoma cells was tested under different concentrations. At indicated concentrations, hSD5 scFv interacted with the cancer cells for 5 days, and the effects on the growth of cancer cells were observed by MTS assay. (FIG. 17C)

T1 sequence (P29317 24-976): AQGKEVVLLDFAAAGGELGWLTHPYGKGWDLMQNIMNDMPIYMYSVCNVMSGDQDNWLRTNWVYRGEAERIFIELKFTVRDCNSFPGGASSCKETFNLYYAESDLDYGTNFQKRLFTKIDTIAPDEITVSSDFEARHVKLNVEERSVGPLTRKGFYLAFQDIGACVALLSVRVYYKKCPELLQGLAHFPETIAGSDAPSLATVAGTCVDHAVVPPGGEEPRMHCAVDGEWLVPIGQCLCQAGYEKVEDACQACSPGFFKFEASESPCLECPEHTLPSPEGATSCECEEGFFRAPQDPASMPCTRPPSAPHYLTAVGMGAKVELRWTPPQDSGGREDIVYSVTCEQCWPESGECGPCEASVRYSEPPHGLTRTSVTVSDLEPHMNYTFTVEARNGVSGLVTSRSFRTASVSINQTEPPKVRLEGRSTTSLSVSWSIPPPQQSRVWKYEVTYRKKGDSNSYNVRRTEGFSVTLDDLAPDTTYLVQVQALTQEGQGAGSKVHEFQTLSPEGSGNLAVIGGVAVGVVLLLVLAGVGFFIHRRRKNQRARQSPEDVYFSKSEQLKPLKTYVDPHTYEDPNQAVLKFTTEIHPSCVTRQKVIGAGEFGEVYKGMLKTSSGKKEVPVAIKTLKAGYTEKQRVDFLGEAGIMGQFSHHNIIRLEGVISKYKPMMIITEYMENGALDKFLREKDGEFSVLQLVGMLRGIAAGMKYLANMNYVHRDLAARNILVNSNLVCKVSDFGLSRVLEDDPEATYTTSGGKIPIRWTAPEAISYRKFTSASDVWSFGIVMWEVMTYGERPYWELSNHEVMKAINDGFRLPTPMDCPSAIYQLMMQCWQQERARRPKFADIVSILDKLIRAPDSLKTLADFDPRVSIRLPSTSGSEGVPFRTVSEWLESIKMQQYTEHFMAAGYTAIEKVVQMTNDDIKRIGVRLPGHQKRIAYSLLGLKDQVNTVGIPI
T2 sequence (P29317 24-976): as above
T3 sequence (P29317 24-976): as above

**Q.** For `CC[C@H](C)[C@@H]([C@@H](CC(=O)N1CCC[C@H]1[C@H](OC)[C@@H](C)C(=O)N[C@H](C)[C@@H](O)c1ccccc1)OC)N(C)C(=O)[C@@H](NC(=O)[C@@H](NC)C(C)C)C(C)C` [MMAE, Monomethyl auristatin E] (H-[NMeV]V[Dil][Dolaproine]-X1), which “potency relative to doxorubicin” value [1] is on record?
**A.** 100-1000 times

**Q.** And the “growth inhibition of normal pancreatic cell line” value (hTERT HPNE)?
**A.** only mild effect

B1: scFv SD5: chicken derived anti-EphA2 scFv, SEQ ID NO: 11 (light chain SEQ ID NO: 7, heavy chain SEQ ID NO: 9) (protein)
scFv: LTQPSSVSANLGETVKIPCSGSSGSYGWYQQKSPGSAPVTLIYDNDKRPSDIPSRFFGSTSGSTSTLTITGVQAEDEAVYFCGSADSSTYVGMFGAGTTLTVLGQSSRSSTVTLDESGGGLQTPGGGLSLVCKASGFTFSDYGMGWVRQAPGKGLEFVAGISAAGSFTPYGAAVKGRATISRDNGQSTVRLQLNNLRSEDTGIYYCARIPSGYRAGEIYTWGQGTEVIVSS
**Q.** With B1 as the molecule, how does the migration inhibition (Panc-1 [2]) read?
**A.** 65%

**Q.** And the growth inhibition (AsPc-1)?
**A.** approximately 80%

**Q.** And the growth inhibition (Panc-1 [3])?
**A.** approximately 80%

**Q.** What about the migration inhibitory effect (BxPc-3 [4]) of the same molecule?
**A.** 67%

**Q.** And the growth inhibition (Mia PaCa-2 [5])?
**A.** approximately 80%

**Q.** What about the growth inhibition (BxPc-3 [6]) of the same molecule?
**A.** 58.5%

**Q.** What about the migration inhibition (BxPc-3 [7]) of the same molecule?
**A.** 91%

**Q.** What about the migration inhibitory effect (Mia PaCa-2 [8]) of the same molecule?
**A.** 65%

**Q.** What about the “migration of cancer cells in wound healing assay” value (BxPc-3 and Mia PaCa-2 [9]) of the same molecule?
**A.** inhibited the migration of cancer cells

**Q.** What about the “recognition of EphA2 protein in native and denatured form” value (EphA2 [10]) of the same molecule?
**A.** can recognize EphA2 in the native form, but not in the denatured form

**Q.** And the “pull down of EphA2 from cell lysates” value [11]?
**A.** captured free EphA2 molecules

**Q.** And the “number of migrated cancer cells” value (BxPc-3 and Mia PaCa-2 [12])?
**A.** reduced effectively

**Q.** What about the “binding response to EphA2 molecules on cancer cells” value [13] of the same molecule?
**A.** significant binding response

B2: scFv hSD5: humanized anti-EphA2 scFv, SEQ ID NO: 12 (light chain SEQ ID NO: 8, heavy chain SEQ ID NO: 10) (protein)
scFv: LTQPPSVSVSPGQTVRITCSGSSGSYGWYQQKSPGQAPVTLIYDNDKRPSGIPERFSGSSSGSTSTLTISGVQAEDEADYYCGSADSSTYVGMFGGGTKLTVLGQSSRSSQVQLVESGGGLVQPGGSLRLSCAASGFTFSDYGMGWVRQAPGKGLEWVAGISAAGSFTPYGAAVKGRFTISRDNSKNTVYLQMNSLRAEDTAVYYCARIPSGYRAGEIYTWGQGTLVTVSS
**Q.** Which “binding to cells overexpressing EphA2” value (EphA2 [14]) does the source give for B2 here?
**A.** specifically binds to EphA2 molecules

**Q.** And the “LAMP1 and LAMP2 levels” value ([15]; 6 h after administration of scFv (FIG. 6C))?
**A.** upregulated levels

**Q.** What about the EphA2 degradation ([15]; 6 h after administration of scFv, dose-dependent (FIG. 6C)) of the same molecule?
**A.** degraded EphA2 molecules

**Q.** What about the EphA2 level ([15]; 24 hours treatment (FIG. 6D)) of the same molecule?
**A.** almost completely degraded

**Q.** And the “amount of pEphA2” value ([15]; 24 hours treatment (FIG. 6D))?
**A.** decreased

**Q.** What about the “pSTAT3 and pFAK signals” value ([15]; 24 hours treatment (FIG. 6D)) of the same molecule?
**A.** dose-dependent decrease

**Q.** What about the “cross-binding to other Eph family proteins” value [16] of the same molecule?
**A.** does not exhibit cross-binding reactions

**Q.** And the growth inhibition (HuCCT1, ssp-25, RBE, TFK)?
**A.** 40%-70%
